The values below come from publication PMC5726015, “Selection, characterization, and thermal stabilization of llama single domain antibodies towards Ebola virus glycoprotein” (Microbial Cell Factories, 2017).

In assay [1] the target is Recombinant EBOV GP without transmembrane domain (Zaire ebolavirus, strain of GP not …, UniProt Q05320).
Target sequence in this assay (Q05320 33-501, chain 1 of 2): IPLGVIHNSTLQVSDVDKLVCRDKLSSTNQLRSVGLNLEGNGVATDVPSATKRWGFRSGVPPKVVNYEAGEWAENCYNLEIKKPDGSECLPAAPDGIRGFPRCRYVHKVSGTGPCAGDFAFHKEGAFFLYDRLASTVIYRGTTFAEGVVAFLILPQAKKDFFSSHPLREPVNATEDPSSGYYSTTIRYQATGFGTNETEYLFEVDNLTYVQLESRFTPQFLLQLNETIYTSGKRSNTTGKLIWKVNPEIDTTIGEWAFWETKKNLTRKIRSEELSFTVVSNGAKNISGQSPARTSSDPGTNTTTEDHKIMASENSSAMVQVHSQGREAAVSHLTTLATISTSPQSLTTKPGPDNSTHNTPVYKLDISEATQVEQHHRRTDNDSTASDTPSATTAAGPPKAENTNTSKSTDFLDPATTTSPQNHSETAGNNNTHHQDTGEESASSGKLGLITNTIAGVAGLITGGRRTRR
Target sequence in this assay (O11457 502-650, chain 2 of 2, further chain): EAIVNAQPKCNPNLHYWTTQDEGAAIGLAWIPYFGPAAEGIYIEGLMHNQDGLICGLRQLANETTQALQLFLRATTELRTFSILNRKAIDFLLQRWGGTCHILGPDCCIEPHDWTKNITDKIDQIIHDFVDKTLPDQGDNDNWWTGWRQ
Assay [2] addresses T1, Recombinant EBOV GP without transmembrane domain (Zaire ebolavirus, strain of GP not …, UniProt Q05320).
T1 construct: also called recombinant GP; EBOV rGPdTM; source: bought: IBT Bioservices
Kind of assay: SPR. As to conditions: both partners purified.
Target sequence in this assay (Q05320 whole entry, looked up, the tested form may be a part): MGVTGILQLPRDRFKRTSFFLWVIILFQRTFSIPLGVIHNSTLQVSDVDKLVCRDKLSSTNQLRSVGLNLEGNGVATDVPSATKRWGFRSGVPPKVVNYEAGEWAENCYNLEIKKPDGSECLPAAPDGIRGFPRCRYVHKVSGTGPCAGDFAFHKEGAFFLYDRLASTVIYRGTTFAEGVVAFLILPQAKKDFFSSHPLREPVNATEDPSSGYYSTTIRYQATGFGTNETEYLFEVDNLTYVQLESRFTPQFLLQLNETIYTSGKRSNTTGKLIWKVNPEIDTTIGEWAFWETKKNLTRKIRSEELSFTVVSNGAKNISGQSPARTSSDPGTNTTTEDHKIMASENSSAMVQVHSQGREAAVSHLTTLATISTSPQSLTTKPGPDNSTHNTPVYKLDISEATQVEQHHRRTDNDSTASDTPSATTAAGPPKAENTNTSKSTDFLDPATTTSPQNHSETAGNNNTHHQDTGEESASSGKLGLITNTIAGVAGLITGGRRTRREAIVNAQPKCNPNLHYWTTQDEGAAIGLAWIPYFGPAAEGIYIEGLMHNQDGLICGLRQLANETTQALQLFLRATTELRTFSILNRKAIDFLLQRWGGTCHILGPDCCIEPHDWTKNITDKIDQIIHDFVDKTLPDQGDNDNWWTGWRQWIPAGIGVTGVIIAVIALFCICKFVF

Assay [3] concerns the target T1, Recombinant EBOV GP without …. Kind of assay: SPR. As to conditions: both partners purified. The source holds these as a separate data set.
T1 sequence (Q05320 whole entry, looked up, the tested form may be a part): as above

B1: R2D10 (VHH)
VHH: EVQLQASGGGLVEPGGPLRLSCAVSGINFNINHWGWYRQAPGKQREWVATIAIGGATDYADSLKGRFTISRDNMKNTVYLQMNSLRPEDTAVYYCNGVGSKWSDRWGQGTQVTVS
As for B1, the binding result in assay [1] is given as “binds”.

B2: R2C8 (VHH)
VHH: EVQLQASGGGLVEPGGSLRLSCAVSGINFNINHWGWYRQAPGKQREWVATIAIGSATDYADSLKGRFAISRDNMKNTVYLQMNSLRPEDTAVYYCNGVGSKWSDRWDQGTQVTVS
As for B2, the binding result in assay [1] is “binds”.

B3: R2G2 (VHH)
VHH: EVQLQASGGGLVEPGGSLRLSCAVSGINFNINHWGWYRQAPGKQREWVATIAIGGATDYADSLKGRFTISRDNMKNTVYLQMNSLRPEDTAVYYCNGVGSKWSDRWGQGTQVTVS
On to B3, for which, in assay [1], the binding result is “binds”.

B4: R3F8 (VHH)
VHH: EVQLQASGGGLVEPGGSLRLSCAVSGINFNINHWGWYRQAPGKQREWVATIAIGGATDYADSVKGRFTISRDNMKNTVYLQMNSLRPEDTAVYYCNGVGSKWSDRWGQGTQVTVS
On to B4, for which the binding result in assay [1] was “binds”.

B5: R3B7 (VHH)
VHH: DVQLQASGGGLVQTGGSLRLACAGSGRSFNNYGMGWFRQAPGKERQFVAAISGNDHTTHYSDSVKGRFTISRDNAKSTVYLQMNSLKPEDTAVYYCAADRLGSFFFPRASPSDYGYWGQGTQVTVS
With B5, the binding result in assay [1] is recorded as “binds”.

B6: EBOV-GP-B11 (VHH)
VHH: EVQLQASGGGLVQTGGSLRLACAGSGRSFNNYGMGWFRQAPGKERQFVAAISGNDHTTHYSDSVKGRFTISRDNAKTTVYLQMNSLKPEDTAVYYCAADRLGSFFFPRASPSDYGYWGQGTQVTVS
By Kd is commonly meant a measure of binding affinity in units of concentration. As a reminder, the koff is a measure of how fast the partners let go of each other. What is called kon is the second-order rate constant of association. On to B6, for which, in assay [2], the Kd stood at 35.9 nM, the koff was 0.00321 s⁻¹ and the kon worked out at 89800 M⁻¹ s⁻¹.

B7: EBOV-GP-H7-neg+ (VHH)
VHH: DVQLVESGGGLVQAGGSLRLSCAASSGTFSSYTMGWFRQAPGKERELVCRLSQSLTTLYADSVKGRFTCSRDNAENTVYLQMNSLKPEDTGVYYCAAHPGTYGSAWLISPHDYAYWGQGTQVTVSS
notes: also called EBOV-H7-neg+; Bt-sdAb-neg+
Take B7: in assay [3], the Kd amounted to 40 nM, the koff amounted to 0.0014 s⁻¹ and the on-rate (kon) is 35000 M⁻¹ s⁻¹.

B8: R2A1 (VHH)
VHH: EVQLQASGGGLVQARGSLQLSCAAPGRPVRTYTMGWFRQAPGKEREFVAANNWRGTRYAGSVRGRFSISRDNSKNTVYLQMNSLKPEDTAVYYCACAVTADLLLSGNYFRGDDYDYWGQGTQVTVS
For the molecule B8, the binding result in assay [1] is recorded as “binds”.

B9: R3G10 (VHH)
VHH: EVQLQASGGGSVQAGGSLQLSCAAPGRPVRTYTMGWFRQAPGKEREFVAANNWRGTRYAGSVRGRFSTSRDNSKNTVYLQMNSLKPEDTAVYYCACAVTADLLLSGNYFRGDDYDYWGQGTQVTVS
As to B9, the binding result in assay [1] was “binds”.

B10: R2B4 (VHH)
VHH: EVQLQASGGGLVQAGGSLQLSCAAPGRPVRTYTMGWFRQAPGKEREFVAANNWRGTRYAGSVRGRFSISRDNSKNTVYLQMNSLKPEDTAVYYCACAETADLLLSGNYFRGDDYDYWGQGTQVTVS
Turning to B10, the binding result in assay [1] is reported as “binds”.

B11: R3H8 (VHH)
VHH: EVQLQASGGGLVQAGGSLQLSCAAPGHPVRTYTMGWFRQAPGKEREFVAANNWRGTRYAGSVRGRFSISRDNSKNTVYLQMNSLKPEDTAVYYCACAVTADLLLSGNYFRGDDYDYWGQGTQVTVS
Turning to B11, in assay [1], the binding result was “binds”.

B12: R3C11 (VHH)
VHH: DVQLQASGGGLVQAGGSLQLSCAAPGRPVRTYTMGWFRQAPGEEREFVAANNWRGTRYAGSVRGRFSVSRDNSKNTVYLQMNSLKPEDTAVYYCACAVTADLLLSGNYYRGDDYDYWGLGTQVTVS
As to B12, the binding result in assay [1] was “binds”.

B13: R2E4 (VHH)
VHH: EVQLQASGGGLVQAGGSLQLSCAAPGRPVRTYTMGWFRQAPGKEREFVAANNWRGTRYAGSVRGRFSISRDNSKNTVYLQMNSLKPEDTAVYYCACAVTADLLLSGNYFRGDDYDYWGQGTQVTVS
As for B13, the binding result in assay [1] is reported as “binds”.

B14: R2E6 (VHH)
VHH: DVQLQASGGGLVQAGGSLQLSCAAPGRPVRTYTMGWFRQAPGMEREFVAANNWRGTRHAGSVRGRFSISRDNSKNTVYLQMNSLKPEDTAVYYCACAVTADLLLSGNYFRGDDYDYWGQGTQVTVS
For the molecule B14, in assay [1], the binding result is “binds”.

B15: EBOV-GP-A8 (VHH)
VHH: EVQLQASGGGLAQAGGSLQLSCAAPGRPVRTYTMGWFRQAPGKEREFVAANNWRGTRYAGSVRGRFSISRDNSKNTVYLQMNSLKPEDTAVYYCACAVTADLLLSGNYFRGDDYDYWGQGTQVTVS
notes: also called Bt-EBOV-GP-A8
Regarding B15, in assay [2], the dissociation constant (Kd) came out at 2.3 nM, the koff is 7.2e-05 s⁻¹ and the kon is 31000 M⁻¹ s⁻¹.

B16: R3F12 (VHH)
VHH: DVQLQASGGGLVQAGGSLRLSCAASSGTFSSYTMGWFRQAPGKERELVARLSQSLTTLYADSVKGRFTISRDNAENTVYLQMNSLKPEDTGVYYCAAHPGTYGSAWLISPHDYAYWGQGAQVTVS
Take B16: in assay [1], the binding result is “binds”.

B17: EBOV-GP-H7 (VHH)
VHH: DVQLQASGGGLVQAGGSLRLSCAASSGTFSSYTMGWFRQAPGKERELVARLSQSLTTLYADSVKGRFTISRDNAENTVYLQMNSLKPEDTGVYYCAAHPGTYGSAWLISPHDYAYWGQGTQVTVS
Regarding B17, in assay [2], the Kd was 17 nM, the koff was 0.0003 s⁻¹ and the kon is 17000 M⁻¹ s⁻¹.

B18: EBOV-GP-A8-neg+ (VHH)
VHH: EVQLVESGGGLVQAGDSLQLSCAAPGRPVRTYTMGWFRQAPGKEREFVCANNWRGTRYAGSVRGRFSCSRDNSKNTVYLQMNSLKPEDTAVYYCACAVTADLLLSGNYFRGDDYDYWGQGTQVTVSS
Regarding B18, in assay [3], the Kd was determined as 0.95 nM, the off-rate constant (koff) came out at 5.8e-05 s⁻¹ and the on-rate (kon) came out at 61000 M⁻¹ s⁻¹.

B19: EBOV-GP-A8-fneg+ (VHH)
VHH: EVQLVESGGGLVQAGDSLQLSCAAPGRPVRTYTMGWFRQAPGKEREFVCANNWRGTRYAGSVRGRFSCSRDNSKNTVYLQMNSLKPEDTAVYYCASAVTADLLLSGNYFRGDDYDYWGQGTQVTVSS
notes: also called Bt-sdAb-neg+
As for B19, in assay [3], the dissociation constant (Kd) came to 0.69 nM, the koff was found to be 9.1e-05 s⁻¹ and the kon stood at 130000 M⁻¹ s⁻¹.

B20: EBOV-GP-G6 (VHH)
VHH: DVQLQASGGGLVQAGGSLRISCAASGGALSDYNMGWFRQAPGKEREFVAVVTWSGGSTRYADSVNGRFTISRDNAKNTVYLQMNSLKPEDTAVYYCAAAPLTPFQSLGDMKAYNYWGQGTQVTVS
On to B20, for which, in assay [2], the dissociation constant (Kd) came out at 2 nM, the koff was determined as 0.00015 s⁻¹ and the kon came to 70000 M⁻¹ s⁻¹.

B21: EBOV-GP-C12 (VHH)
VHH: EVQLQASGGGLVQPGGSLRLSCTASGSIFSINAMGWYRQTPRKERELVAAISEGGSTKYGDSVKGRFTISRDFAKNTQMVYLQMNSLKAEDTAVYYCKAQTEGPIADWGTSQYEYWGQGTQVTVS
Take B21: in assay [2], the Kd amounted to 26.8 nM, the koff was 8.71e-05 s⁻¹ and the association rate constant (kon) was found to be 3280 M⁻¹ s⁻¹.

B22: EBOV-GP-D1 (VHH)
VHH: EVQLQASGGGSVPPGGSLRLSCTASLRAFSTYTMGWFRQAPGKEREFVAASNWRGTDFHDSVRGRFIISRDNTEKTVDLQMNSLKPEDTAIYYCAADGSTWLKRSDYSYWGQGTQVTVS
For B22, in assay [2], the Kd amounted to 11 nM, the koff was 0.00033 s⁻¹ and the kon is 30000 M⁻¹ s⁻¹.

B23: EBOV-GP-B5 (VHH)
VHH: EVQLQASGGGLVQAGGSLRLSCTASLRAFSTYTMGWFRQAPGKEREFVAASNWRGTDFHDSVKGRFIISRDNTKKTVDLQMNSLKPEDTAIYYCAADGSTWLKRSDYSYWGQGTQVTVS
With B23, in assay [2], the Kd worked out at 11 nM, the off-rate constant (koff) stood at 0.00037 s⁻¹ and the kon came out at 34000 M⁻¹ s⁻¹.

B24: R2H1 (VHH)
VHH: EVLLQASGGGLVQPGGSLRLSCAASGLIFSINVMGWYRQTPGKQRELVASISRDDSTKYADSVKGRFTISRDNAKNTVYLQMNSLKPEDTAVYYCNTQTEGPVADWGTSHYDYWGQGTQVTVS
Regarding B24, the binding result in assay [1] was “binds”.

B25: R2H11 (VHH)
VHH: EVQLQASGGGLVQAGGSTRLSCAGSGSIFSINAMGWYRQTPEKQRELVATISSSGSTKYGDSVKGRFTISRDNAKNTVYLQMNSLKPEDTAVYYCNTQTAGPVADWGTSHYDYWGQGVQVTVS
For the molecule B25, the binding result in assay [1] is listed as “binds”.

B26: EBOV-GP-E7 (VHH)
VHH: EVQLQASGGGLVQPRGSLRLSCAASGSIFSINAMGWYRQTPEKQRELVATISSSGSTKYGDSVKGRFTISRDNAKNTVYLQMNSLKPEDTAVYYCNTQTAGLVADWGTSHYDYWGQGVQVTVS
For B26, in assay [2], the dissociation constant Kd amounted to 34 nM, the dissociation rate constant (koff) is 0.00011 s⁻¹ and the kon worked out at 3500 M⁻¹ s⁻¹.

B27: EBOV-GP-G6-neg+ (VHH)
VHH: DVQLVESGGGLVQAGGSLRISCAASGGALSDYNMGWFRQAPGKEREFVCVVTWSGGSTRYADSVNGRFTCSRDNAKNTVYLQMNSLKPEDTAVYYCAAAPLTPFQSLGDMKAYNYWGQGTQVTVSS
notes: also called Bt-sdAb-neg+
On to B27, for which, in assay [3], the dissociation constant (Kd) came to 44 nM, the koff is 0.00015 s⁻¹ and the association rate constant (kon) came out at 3500 M⁻¹ s⁻¹.
